From PMC2710508

Legend:
F-actin = F-actin (UniProt P68133); assay: given as Ka; settings: cited from earlier work
[1] = target: F-actin from chicken pectoral skeletal muscle (chicken) (UniProt P68139); assay: differential scanning calorimetry; tropomyosin 15 µM and TnT 70–170 18 µM with phalloidin (36 µM) stabilized F-actin (24 µM), 100 mM NaCl, 10 mM Hepes pH 7.0, 2 mM MgCl2, 1 mM DTT; three heating scans at 1°C/min; peak of unfolding/dissociation of actin-bound tropomyosin
[2] = target: F-actin from chicken pectoral skeletal muscle (chicken) (UniProt P68139); assay: co-sedimentation; tropomyosin 0.1–10 µM with 0.12–12 µM troponin T 70–170 (1.2× molar excess) and 5 µM F-actin, 20°C, 250 mM NaCl, 10 mM TrisHCl pH 7.5, 2 mM MgCl2, 0.5 mM DTT; pellets and supernatants by SDS-PAGE and densitometry; apparent constant (Kapp) and Hill coefficient from a fit to the Hill equation

DSC TM of dissociation from F-actin (TM3) [1] | DSC ΔΔH (with minus without F-actin) [1] | Ka [2] | Substance | association constant (Ka) (F-actin)
– | – | – | tropomyosin (from UniProt P09493) | 400 µM
37.6 °C | 37.6 kcal/mol | 1.33e+06 M⁻¹ | P5→P3 tropomyosin (residues 165–188 of P5 replace residues 88–111 of P3) (from UniProt P04692 1-284) (natural protein) | –
